US20150218281A1 (Ablynx, published 2015)
Like-named read-outs stand apart in the source and are kept apart here.

Experiments:
[1] = target: T1, recombinant human OX40L (extracellular domain, R&D Systems) (human, UniProt P23510 51-183); test: cell-based or functional assay
T1 sequence: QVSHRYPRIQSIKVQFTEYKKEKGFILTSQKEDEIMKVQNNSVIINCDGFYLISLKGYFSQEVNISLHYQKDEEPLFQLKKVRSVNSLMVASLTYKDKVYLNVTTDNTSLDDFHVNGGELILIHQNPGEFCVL

[2] = target: T2, biotinylated hOX40L (R&D Systems, biotinylated in house) (human, UniProt P23510 51-183, biotinylated with Sulfo-NHS-LC-Biotin, sites not stated); test: hOX40L/hOX40 AlphaScreen, sample heated 1 min at Tm+10 C
T2 construct: same bought protein as m10, biotinylated; also called biotinylated OX40L
T2 sequence: T1 sequence
Method: (§1) Next, streptavidin donor beads were added and incubated for an additional 1 hour. Fluorescence was measured by reading plates on the EnVision Multilabel Plate Reader using an excitation wavelength of 680 nm and an emission wavelength of 520 nm.
(§2) In the TSA assay, Nanobodies were diluted to a concentration of 0.2 mg/ml and melting temperature (Tm) was determined at different pH by stepwise increase in temperature in presence of Sypro Orange, a dye that binds to […] residues that become exposed upon unfolding of the protein, using the Lightcycler (Roche) for detection. […] In SEC analysis, the Nanobodies were analyzed on a Phenomenex matrix to allow detection of multimers, aggregates or ‘stickyness’.

[3] = target: T2, biotinylated hOX40L (R&D Systems, …); test: hOX40L/hOX40 AlphaScreen, native sample
Method: as §1, §2

[4] = target: T3, human Receptor Activator for Nuclear Factor kappa B Ligand (human, UniProt O14788 143-317, limits assumed); test: competition ELISA: fixed concentration of OX40L01E07 pre-incubated with a concentration series of the competitor, then added to biotinylated hOX40L captured on neutravidin; OD450nm
T3 construct: also called hRANKL; RANKL
T3 sequence (looked up): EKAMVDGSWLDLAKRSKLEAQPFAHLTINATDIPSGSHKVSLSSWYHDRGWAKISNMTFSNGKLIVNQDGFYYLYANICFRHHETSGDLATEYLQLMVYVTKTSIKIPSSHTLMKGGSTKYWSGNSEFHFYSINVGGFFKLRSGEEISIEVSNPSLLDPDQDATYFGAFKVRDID
Method: (§3) The binding of OX40L blocking Nanobodies to other TNF family members was tested in a competition ELISA.
(§4) Detection was done using sTMB (SDT Reagents, Baesweiler, Germany), the reaction was stopped with 1M HCl and absorbance was determined at 450 nm.

hCD30L [5] = target: T4, hCD30L (human, UniProt P32971 63-234); test: as above
T4 sequence (looked up): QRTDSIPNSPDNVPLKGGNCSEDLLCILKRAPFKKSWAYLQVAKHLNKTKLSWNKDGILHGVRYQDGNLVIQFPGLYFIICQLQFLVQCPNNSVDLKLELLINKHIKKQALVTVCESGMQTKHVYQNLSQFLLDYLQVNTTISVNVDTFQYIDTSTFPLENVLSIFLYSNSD
Method: as §3, §4

[6] = target: T5, human tumor necrosis factor-related apoptosis inducing ligand (human, UniProt P50591 114-281); test: as above
T5 construct: also called hTRAIL; TRAIL
Method: as §3, §4

hTNF-alpha = hTNF-alpha (human, UniProt P01375 77-233); test: as above
Method: as §3, §4

[7] = target: T3, human Receptor Activator for Nuclear …; test: competition ELISA on neutravidin captured biotinylated hOX40L
Method: as §3, §4

hCD30L [8] = target: T4, hCD30L; test: as above
Method: as §3, §4

[9] = target: T5, human tumor necrosis factor-related …; test: as above
Method: as §3, §4

hCD40L = target: T6, hCD40L (human, UniProt P29965 113-261); test: as above
T6 sequence (looked up): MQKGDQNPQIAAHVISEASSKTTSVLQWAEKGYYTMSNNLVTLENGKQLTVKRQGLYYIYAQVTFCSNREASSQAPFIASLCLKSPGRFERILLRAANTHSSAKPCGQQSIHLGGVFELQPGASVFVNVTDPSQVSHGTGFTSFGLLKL
Method: as §3, §4

[10] = target: T2, biotinylated hOX40L (R&D Systems, …); test: hOX40L/hOX40 AlphaScreen, assay 2, heated at Tm+10 C
[11] = target: T2, biotinylated hOX40L (R&D Systems, …); test: hOX40L/hOX40 AlphaScreen, assay 2, native
Method: as §1, §2

[12] = target: T2, biotinylated hOX40L (R&D Systems, …); test: hOX40L/hOX40 AlphaScreen, assay 3, native
[13] = target: T2, biotinylated hOX40L (R&D Systems, …); test: hOX40L/hOX40 AlphaScreen, assay 1, native
Method: Next, streptavidin donor beads were added and incubated for an additional 1 hour. Fluorescence was measured by reading plates on the EnVision Multilabel Plate Reader using an excitation wavelength of 680 nm and an emission wavelength of 520 nm. […]

[14] = target: T1, recombinant human OX40L (extracellular …); test: cell-based or functional assay; remark: listed apart in the source

T5 sequence (P50591 114-281 limits assumed): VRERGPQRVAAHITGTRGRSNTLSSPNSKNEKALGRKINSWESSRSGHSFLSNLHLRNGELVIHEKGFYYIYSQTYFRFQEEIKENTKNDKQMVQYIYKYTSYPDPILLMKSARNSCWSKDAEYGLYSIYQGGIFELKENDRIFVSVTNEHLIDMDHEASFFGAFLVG
Chain of hTNF-alpha (P01375 77-233 limits assumed): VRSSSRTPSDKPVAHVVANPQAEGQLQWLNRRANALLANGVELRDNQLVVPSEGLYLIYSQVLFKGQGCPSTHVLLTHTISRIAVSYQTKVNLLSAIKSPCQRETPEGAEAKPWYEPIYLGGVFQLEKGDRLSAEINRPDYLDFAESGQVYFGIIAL

B1: OX40L01E07 (VHH)
VHH: EVQLVESGGGLVQAGGSLRLSCAASGRTFSSIYAKGWFRQAPGKEREFVAAISRSGRSTSYADSVKGRFTISRDNAKNTVYLQMNSLKPEDTAVYYCAAVGGATTVTASEWDYWGLGTQVTVSS
notes: monovalent Nanobody from E. coli; not shown: C-terminal c-myc and His6 tag
[1]
  IC50, T cell assay with rec. hOX40L: 1.48 nM
[2]
  IC50: 0.1 nM
[3]
  IC50: 0.1 nM
[4]
  binding result: no binding
hCD30L [5]
  binding result: no binding
[6]
  binding result: no binding
hTNF-alpha
  binding result: no binding

B2: OX40L01B11 (VHH)
VHH: EVQLVESGGGLVQAGGSLRLSCVASGRSFSTYIMGWFRQAPGKEREFVATISRSGITTRSADSVKGRFTISRDNAKNTVYLQMNSLKPEDTAVYYCAAGPYVEQTLGLYQTLGPWDYWGQGTQVTVSS
notes: as for B1
[2]
  IC50: 0.6 nM
[7]
  binding result: no binding (tested: starting from 100 fold molar excess)
hCD30L [8]
  binding result: no binding (tested: starting from 100 fold molar excess)
[9]
  binding result: no binding (tested: starting from 100 fold molar excess)
hCD40L
  binding result: no binding (tested: starting from 100 fold molar excess)
[3]
  IC50: 0.54 nM

B3: OX40L15B07 (VHH)
VHH: EVQLVESGGGLVQAGGSLRLSCAASRSIGRLDRMGWYRHRTGEPRELVATITGGSSINYGDFVKGRFTISIDNAKNTVYLQMNNLKPEDTAVYYCNFNKYVTSRDTWGQGTQVTVSS
notes: as for B1
[7]
  binding result: no binding (tested: starting from 100 fold molar excess)
hCD30L [8]
  binding result: no binding (tested: starting from 100 fold molar excess)
[9]
  binding result: no binding (tested: starting from 100 fold molar excess)
hCD40L
  binding result: no binding (tested: starting from 100 fold molar excess)
[10]
  IC50: 0.103 nM
[11]
  IC50: 0.066 nM
[12]
  IC50: 0.077 nM
[13]
  IC50: 0.102 nM
[14]
  IC50, T cell assay with rec. hOX40L: 10 nM
